From article PMC9483116, “Deubiquitination of BES1 by UBP12/UBP13 promotes brassinosteroid signaling and plant growth” (Plant Communications, 2022)

T1: GST-UBP13 (full-length) (Arabidopsis thaliana, UniProt Q84WU2 1-1115)
T1 construct: UBP13 (ubiquitin-specific protease 13), Arabidopsis thaliana, At3g11910; full length
T1 sequence (looked up): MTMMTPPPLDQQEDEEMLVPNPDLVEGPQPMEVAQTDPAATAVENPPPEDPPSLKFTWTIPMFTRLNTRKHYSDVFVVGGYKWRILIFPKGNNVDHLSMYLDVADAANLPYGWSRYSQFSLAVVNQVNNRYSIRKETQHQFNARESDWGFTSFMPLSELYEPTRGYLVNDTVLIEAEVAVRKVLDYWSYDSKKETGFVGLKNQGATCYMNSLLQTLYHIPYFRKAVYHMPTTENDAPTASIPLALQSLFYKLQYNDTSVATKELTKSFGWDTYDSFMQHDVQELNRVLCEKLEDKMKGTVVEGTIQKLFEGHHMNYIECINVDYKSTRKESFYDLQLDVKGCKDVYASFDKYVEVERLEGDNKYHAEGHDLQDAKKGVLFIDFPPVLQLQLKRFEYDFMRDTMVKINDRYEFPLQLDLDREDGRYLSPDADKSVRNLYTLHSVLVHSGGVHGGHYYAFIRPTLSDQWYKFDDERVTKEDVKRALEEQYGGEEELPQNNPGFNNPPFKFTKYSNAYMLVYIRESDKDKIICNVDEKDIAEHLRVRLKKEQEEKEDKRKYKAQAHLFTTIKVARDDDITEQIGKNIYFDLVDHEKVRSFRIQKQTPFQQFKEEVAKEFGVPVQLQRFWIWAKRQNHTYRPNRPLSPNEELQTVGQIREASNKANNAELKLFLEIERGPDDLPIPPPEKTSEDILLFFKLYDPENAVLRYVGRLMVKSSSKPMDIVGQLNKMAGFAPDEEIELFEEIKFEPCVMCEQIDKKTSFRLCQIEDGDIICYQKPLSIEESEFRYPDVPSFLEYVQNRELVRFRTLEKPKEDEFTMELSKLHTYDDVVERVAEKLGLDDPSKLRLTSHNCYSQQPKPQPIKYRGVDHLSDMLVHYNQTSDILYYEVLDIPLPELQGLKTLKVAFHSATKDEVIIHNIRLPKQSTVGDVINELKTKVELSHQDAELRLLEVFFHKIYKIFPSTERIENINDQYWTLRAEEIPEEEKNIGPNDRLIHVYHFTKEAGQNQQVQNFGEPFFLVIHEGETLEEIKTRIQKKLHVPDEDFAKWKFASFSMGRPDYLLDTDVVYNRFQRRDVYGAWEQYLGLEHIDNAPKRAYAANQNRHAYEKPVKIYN

T2: GST-UBP12 (full-length) (Arabidopsis thaliana, UniProt Q9FPT1 1-1116)
T2 construct: UBP12 (ubiquitin-specific protease 12), Arabidopsis thaliana, At5g06600; full length (1-1116 by the limits printed for its N and C derivatives); not shown: GST, N-terminal, kept
T2 sequence (looked up): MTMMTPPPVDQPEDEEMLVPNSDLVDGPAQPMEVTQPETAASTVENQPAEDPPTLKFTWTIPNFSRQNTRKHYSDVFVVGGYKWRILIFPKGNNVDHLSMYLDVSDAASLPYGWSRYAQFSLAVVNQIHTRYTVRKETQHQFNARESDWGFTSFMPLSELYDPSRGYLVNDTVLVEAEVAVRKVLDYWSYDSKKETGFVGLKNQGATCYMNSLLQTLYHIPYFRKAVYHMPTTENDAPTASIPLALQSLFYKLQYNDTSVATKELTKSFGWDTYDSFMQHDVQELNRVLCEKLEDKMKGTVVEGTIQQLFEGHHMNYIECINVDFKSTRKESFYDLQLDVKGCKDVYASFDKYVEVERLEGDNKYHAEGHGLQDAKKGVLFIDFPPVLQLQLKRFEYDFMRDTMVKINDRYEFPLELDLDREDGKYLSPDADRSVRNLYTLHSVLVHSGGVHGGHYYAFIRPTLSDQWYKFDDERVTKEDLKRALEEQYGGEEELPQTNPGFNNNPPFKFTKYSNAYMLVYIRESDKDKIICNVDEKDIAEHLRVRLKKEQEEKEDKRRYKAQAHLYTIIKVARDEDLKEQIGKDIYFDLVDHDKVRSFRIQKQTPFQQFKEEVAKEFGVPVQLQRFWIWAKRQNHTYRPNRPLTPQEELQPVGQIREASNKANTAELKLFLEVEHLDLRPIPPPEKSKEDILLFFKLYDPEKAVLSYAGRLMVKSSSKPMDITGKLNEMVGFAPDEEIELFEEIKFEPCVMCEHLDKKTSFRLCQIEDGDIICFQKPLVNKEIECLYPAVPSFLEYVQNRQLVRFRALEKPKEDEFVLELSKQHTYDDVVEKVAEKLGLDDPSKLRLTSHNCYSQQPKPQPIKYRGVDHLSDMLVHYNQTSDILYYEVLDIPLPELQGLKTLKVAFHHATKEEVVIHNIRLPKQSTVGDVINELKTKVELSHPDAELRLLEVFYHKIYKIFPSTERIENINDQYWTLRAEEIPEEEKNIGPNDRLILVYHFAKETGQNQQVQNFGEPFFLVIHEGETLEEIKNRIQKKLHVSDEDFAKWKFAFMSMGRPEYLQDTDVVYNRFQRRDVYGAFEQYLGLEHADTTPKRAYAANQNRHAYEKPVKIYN

T3: GST-UBP12-N (N-terminal region of UBP12, amino acids 1–541) (Arabidopsis thaliana, UniProt Q9FPT1 1-541)
T3 construct: UBP12, Arabidopsis thaliana, At5g06600; N-terminal region, amino acids 1-541, with the MATH domain and the cysteine/histidine-containing catalytic domain
T3 sequence (looked up): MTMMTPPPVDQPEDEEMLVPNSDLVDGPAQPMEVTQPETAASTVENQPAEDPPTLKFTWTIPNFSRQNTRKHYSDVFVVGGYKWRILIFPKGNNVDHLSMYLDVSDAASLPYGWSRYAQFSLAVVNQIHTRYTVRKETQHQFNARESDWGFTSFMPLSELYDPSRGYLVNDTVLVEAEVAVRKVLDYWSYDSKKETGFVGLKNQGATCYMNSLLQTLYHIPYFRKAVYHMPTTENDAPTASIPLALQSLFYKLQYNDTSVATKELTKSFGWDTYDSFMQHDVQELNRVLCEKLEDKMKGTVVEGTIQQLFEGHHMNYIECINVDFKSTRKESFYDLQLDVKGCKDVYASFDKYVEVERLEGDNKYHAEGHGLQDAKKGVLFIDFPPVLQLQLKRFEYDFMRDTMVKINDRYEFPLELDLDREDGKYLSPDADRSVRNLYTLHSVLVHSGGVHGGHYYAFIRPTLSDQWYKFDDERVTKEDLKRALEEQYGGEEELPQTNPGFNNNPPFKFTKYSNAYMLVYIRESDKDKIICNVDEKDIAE


Tests used:
Assay in all cases: pull-down; in vitro; GST-tagged proteins bound to glutathione resin as bait, MBP-tagged proteins incubated with them; about 2 ug of each protein; immunoblot with anti-myc or anti-MBP
Settings in all cases: both partners purified
GST-UBP13 (full-length) = target: T1, GST-UBP13 (full-length)
GST-UBP12 (full-length) = target: T2, GST-UBP12 (full-length)
[1] = target: T3, GST-UBP12-N (N-terminal region of …)

| binding result (GST-UBP13 (full-length)) | binding result (GST-UBP12 (full-length)) | binding result [1] | Binder |
| --- | --- | --- | --- |
| binds | binds | – | MBP-BZR1-myc (BRASSINAZOLE RESISTANT1) (natural protein, Arabidopsis thaliana, UniProt Q8S307 1-336, looked up, BZR1 (BRASSINAZOLE RESISTANT1), Arabidopsis thaliana, At1g75080; source: E. coli BL21 (DE3) pLysS, purified (amylose resin); not shown: MBP, N-terminal, kept; 6x myc, C-terminal, kept) MTSDGATSTSAAAAAAAAAAARRKPSWRERENNRRRERRRRAVAAKIYTGLRAQGDYNLPKHCDNNEVLKALCVEAGWVVEEDGTTYRKGCKPLPGEIAGTSSRVTPYSSQNQSPLSSAFQSPIPSYQVSPSSSSFPSPSRGEPNNNMSSTFFPFLRNGGIPSSLPSLRISNSCPVTPPVSSPTSKNPKPLPNWESIAKQSMAIAKQSMASFNYPFYAVSAPASPTHRHQFHTPATIPECDESDSSTVDSGHWISFQKFAQQQPFSASMVPTSPTFNLVKPAPQQMSPNTAAFQEIGQSSEFKFENSQVKPWEGERIHDVGMEDLELTLGNGKARG |
| binds | binds | binds | MBP-BES1-myc (BRI1-EMS-SUPPRESSOR 1) (natural protein, Arabidopsis thaliana, UniProt Q9LN63 1-335, looked up, BES1 (BRI1-EMS-SUPPRESSOR 1), Arabidopsis thaliana, At1g19350; source: E. coli BL21 (DE3) pLysS, purified (amylose resin); not shown: MBP, N-terminal, kept; 6x myc, C-terminal, kept) MTSDGATSTSAAAAAAAMATRRKPSWRERENNRRRERRRRAVAAKIYTGLRAQGNYNLPKHCDNNEVLKALCSEAGWVVEEDGTTYRKGHKPLPGDMAGSSSRATPYSSHNQSPLSSTFDSPILSYQVSPSSSSFPSPSRVGDPHNISTIFPFLRNGGIPSSLPPLRISNSAPVTPPVSSPTSRNPKPLPTWESFTKQSMSMAAKQSMTSLNYPFYAVSAPASPTHHRQFHAPATIPECDESDSSTVDSGHWISFQKFAQQQPFSASMVPTSPTFNLVKPAPQQLSPNTAAIQEIGQSSEFKFENSQVKPWEGERIHDVAMEDLELTLGNGKAHS |
